Test results: patent publication US9708382B2, “Peptide library” (Daiichi Sankyo Company, Limited, priority 2011, dated 2017)

Experiments:
[1] = biological target: T1, Recombinant Mouse EphA2/Fc Chimera (mEphA2/Fc) (Mus musculus, UniProt Q03145); experiment: Phage ELISA on solid-phase immobilized mEphA2/Fc; type: binding; details: phage-displayed peptide, compared with wild-type TACI_d2
T1 construct: purchased R&D systems, Inc
Procedure: (§1) As to 3 clones (α-EphA2 #1 to #3: corresponding to SEQ ID NOs: 3 to 5, respectively, in the Sequence Listing and to Nos. 2 to 4, respectively in FIG. 4) selected from the Escherichia coli colonies after the final round of panning with hEphA2 as a target molecule, an Escherichia coli suspension with OD600 nm=0.3 was prepared using 2×YT/Amp/1% Glu. The Escherichia coli cells of each clone were shake-cultured at 37° C. and allowed to grow until OD600 nm=0.5. A sufficient amount of helper phages M13K07 was added thereto to infect the cells at 37° C. for 30 minutes. After addition of 2×YT/Amp/Kan/0.25 mM IPTG, the helper phage-infected Escherichia coli was shake-cultured overnight at 22° C. 20% PEG/2.5 M NaCl solution was added to the recovered culture supernatant to precipitate phages. The precipitated phages were suspended in PBS. This phage stock solution and a series of two-fold dilutions with PBS were used in phage ELISA. An Escherichia coli TG-1 strain having a pCANTAB 5E vector containing the wild-type TACI_d2 gene was also subjected to the same operation as above to prepare phages.
Each of hEphA2, BSA, Recombinant Human BAFF/BLyS/TNFSF13B (R&D systems, Inc.; a polypeptide consisting of amino acids from Ala at position 134 to Leu at position 285 in human BAFF (UniProtKB/Swiss-Prot Accession # Q9Y275) and containing an N-terminally linked histidine tag, etc.; hereinafter referred to as “hBAFF”), and Recombinant Mouse EphA2/Fc Chimera, CF (R&D systems, Inc.; a polypeptide consisting of amino acids from Ala at position 22 to Ala at position 535 in mouse EphA2 (NCBI Accession No. #AAA82113) and containing a C-terminally linked Fc region (from Pro at position 100 to Lys at position 330) of human immunoglobulin G1 (hereinafter, referred to as “hIgG1”); hereinafter, referred to as “mEphA2/Fc”) was added to a Maxisorp plate and solid-phase immobilized overnight at 4° C. […] After washing of the Maxisorp plate with TBST again, the amount of a phage bound with the protein solid-phase immobilized on the plate was detected as absorbance at a wavelength of 405 nm using ELISA POD.

[2] = biological target: T2, human EphA2 expressed on cell surface (Homo sapiens, UniProt P29317); experiment: Flow cytometry binding to human EphA2-expressing HEK293T cells; type: cell-based; details: phage-displayed peptide, HEK293T cells transfected with human EphA2, human ErbB2-expressing cells as negative control
T2 construct: expressed in transfected cells; host or cells: HEK293T
T2 sequence (P29317 24-976): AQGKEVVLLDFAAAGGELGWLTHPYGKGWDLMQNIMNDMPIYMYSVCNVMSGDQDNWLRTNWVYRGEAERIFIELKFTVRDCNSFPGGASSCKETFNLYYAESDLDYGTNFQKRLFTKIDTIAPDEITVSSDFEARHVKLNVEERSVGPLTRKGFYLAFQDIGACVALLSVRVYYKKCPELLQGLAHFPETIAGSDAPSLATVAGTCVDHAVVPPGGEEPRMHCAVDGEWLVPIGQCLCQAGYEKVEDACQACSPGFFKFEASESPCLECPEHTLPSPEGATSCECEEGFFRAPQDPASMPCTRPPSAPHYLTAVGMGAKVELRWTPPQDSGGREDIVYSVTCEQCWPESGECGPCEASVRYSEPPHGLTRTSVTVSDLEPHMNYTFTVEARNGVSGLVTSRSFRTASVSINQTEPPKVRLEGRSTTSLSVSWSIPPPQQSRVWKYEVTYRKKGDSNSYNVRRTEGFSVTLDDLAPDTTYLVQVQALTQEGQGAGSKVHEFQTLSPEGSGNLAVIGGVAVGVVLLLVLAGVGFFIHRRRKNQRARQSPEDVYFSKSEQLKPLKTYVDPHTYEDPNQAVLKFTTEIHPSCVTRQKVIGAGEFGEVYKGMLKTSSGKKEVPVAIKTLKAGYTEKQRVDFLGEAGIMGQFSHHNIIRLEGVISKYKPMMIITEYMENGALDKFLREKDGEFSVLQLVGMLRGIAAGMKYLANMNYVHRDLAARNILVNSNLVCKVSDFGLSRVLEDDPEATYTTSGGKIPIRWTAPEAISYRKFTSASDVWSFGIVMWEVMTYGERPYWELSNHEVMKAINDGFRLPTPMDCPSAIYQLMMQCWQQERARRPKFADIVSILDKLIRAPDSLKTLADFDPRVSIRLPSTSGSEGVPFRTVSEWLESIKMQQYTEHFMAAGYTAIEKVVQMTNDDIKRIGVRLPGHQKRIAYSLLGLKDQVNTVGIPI
Procedure: Human embryonic kidney cells (HEK293T cells) were cultured at 37° C. in the presence of 5% CO2 using a Dulbecco's modified eagle's medium (hereinafter, referred to as “DMEM”; manufactured by GIBCO, Life Technologies Corp.) containing 10% fetal bovine serum (FBS) (hereinafter, this medium is referred to as “DMEM-10% FBS”). For use in transfection or flow cytometry, the cells were dissociated from the plate for culture using 0.05% trypsin-EDTA (GIBCO), and the cell suspension was then centrifuged to recover cells, which were then resuspended in DMEM-10% FBS and used.
The HEK293T cells were transfected with a pcDNA-DEST40 Gateway vector (manufactured by Invitrogen Corp.) having an insert of the human EphA2 gene or the human ErbB2 gene as a negative control using Lipofectamine 2000 (manufactured by Invitrogen Corp.) according to the instructions.
The transfected cells were recovered. The recovered cells were suspended in a FACS buffer (PBS containing 5% FBS) and applied to a nylon mesh. The solution was dispensed in an amount of 5×10^5 cells/well to 96 Well Cell Culture Cluster Round Bottom With Lid (manufactured by Costar, Corning Inc.) and centrifuged to remove a supernatant. The phage stock solution prepared in the paragraph 1) of Example 4 was added to the resulting cells at a concentration of 50 μL/well, and the mixture was left standing at 4° C. for 30 minutes. A FACS buffer was added thereto at a concentration of 150 μL/well, and the mixture was centrifuged to remove a supernatant. Again, a FACS buffer was added thereto at a concentration of 200 μL/well, and the mixture was centrifuged to remove a supernatant (hereinafter, cells were washed in the same way as this operation). An Anti-M13 antibody diluted 100-fold was added to the obtained cells at a concentration of 50 μL/well as a primary antibody, and the mixture was left standing at 4° C. for 30 minutes, followed by washing of the cells. Subsequently, FLUORESCEIN-CONJUGATED GOAT IGG FRACTION TO MOUSE IGG (manufactured by Cappel, MP Biomedicals, LLC) diluted 1000-fold was added thereto as a secondary antibody, and the mixture was left standing at 4° C. for 30 minutes, followed by washing of the cells. The obtained cells were suspended in 250 μL of a FACS buffer and subjected to Cytomics FC 500 Flow Cytometry System (manufactured by Beckman Coulter, Inc.). Fluorescently stained cells were detected.

BAFF = BAFF (Homo sapiens, UniProt Q9Y275); details: compared with whole extracellular region (TACI_d1d2); cited from earlier work
Chain of BAFF (Q9Y275 134-285 limits assumed, species assumed): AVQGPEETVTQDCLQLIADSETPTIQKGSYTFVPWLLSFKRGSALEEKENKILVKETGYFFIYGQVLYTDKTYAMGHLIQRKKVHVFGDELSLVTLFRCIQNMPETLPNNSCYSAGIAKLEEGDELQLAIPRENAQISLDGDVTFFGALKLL

[3] = biological target: T3, Recombinant Human BAFF/BLyS/TNFSF13B (hBAFF) (Homo sapiens, UniProt Q9Y275); experiment: Phage ELISA on solid-phase immobilized hBAFF; type: binding; details: phage-displayed peptide, absorbance at 405 nm
T3 construct: amino acids from Ala at position 134 to Leu at position 285 in human BAFF; histidine tag (N); purchased R&D systems, Inc
T3 sequence (Q9Y275 134-285): as the sequence (Q9Y275 134-285 limits assumed, species assumed) above
Procedure: as §1, with “prepare phages. […]” for “prepare phages.”

APRIL = biological target: T4, APRIL (Homo sapiens, UniProt O75888); details: compared with whole extracellular region (TACI_d1d2); cited from earlier work
T4 sequence (O75888 105-250): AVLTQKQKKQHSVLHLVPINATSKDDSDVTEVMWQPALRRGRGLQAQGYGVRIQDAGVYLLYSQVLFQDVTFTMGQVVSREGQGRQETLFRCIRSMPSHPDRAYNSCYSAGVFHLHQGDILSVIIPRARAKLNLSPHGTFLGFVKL

T1 sequence (Q03145 22-535, change not shown): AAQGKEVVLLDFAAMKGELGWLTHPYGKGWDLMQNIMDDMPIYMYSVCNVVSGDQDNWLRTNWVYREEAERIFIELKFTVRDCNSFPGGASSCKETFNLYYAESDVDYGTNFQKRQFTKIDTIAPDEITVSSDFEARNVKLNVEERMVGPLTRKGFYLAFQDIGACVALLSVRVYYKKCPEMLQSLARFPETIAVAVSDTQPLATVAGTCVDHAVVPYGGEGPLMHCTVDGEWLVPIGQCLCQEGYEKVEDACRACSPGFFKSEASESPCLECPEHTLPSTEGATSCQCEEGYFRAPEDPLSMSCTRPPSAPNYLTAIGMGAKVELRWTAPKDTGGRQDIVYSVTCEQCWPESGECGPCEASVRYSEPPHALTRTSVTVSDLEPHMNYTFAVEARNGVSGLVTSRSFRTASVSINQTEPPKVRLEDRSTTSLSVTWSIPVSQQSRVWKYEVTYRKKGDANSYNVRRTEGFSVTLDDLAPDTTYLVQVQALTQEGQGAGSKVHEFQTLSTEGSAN

Row | Substance | cross reactivity to mEphA2 [1] | binding to human EphA2 expressed on cell surface [2] | binding to human EphA2 expressed on cell surface ([2]; listed as α-EphA2 TACI_d2 #2) | binding to human EphA2 expressed on cell surface ([2]; listed as α-EphA2 TACI_d2 #1) | binding activity against BAFF (BAFF) | binding to the endogenous ligand hBAFF [3] | binding activity against APRIL (APRIL)
1 | SLSCRKEQGKMYLLKEWDCASCASACGNHPHYCAYFCEN (Amino acid sequence of human EphA2-binding peptide a-EphA2 #2) [α-EphA2 #2] | cross reactivity to mEphA2 at a level equivalent to wild-type TACI_d2 | bound | specifically bound | – | – | – | –
2 | SLSCRKEQGKQYLLREWDCDSCASECGSHPHYCAYFCEN (Amino acid sequence of human EphA2-binding peptide a-EphA2 #1) [α-EphA2 #1] | stronger cross reactivity | bound | – | specifically bound | – | – | –
3 | wild-type TACI_d2: wild-type C-terminal cysteine-rich domain of TACI, binds APRIL and BAFF | – | – | – | – | equivalent to the binding activity of the whole extracellular region (TACI_d1d2) | bind to the endogenous ligand hBAFF | equivalent to the binding activity of the whole extracellular region (TACI_d1d2)
4 | SLSCRKEQGKHYLLKEYDCDSCASECGYHPDYCAYFCEN (Amino acid sequence of human EphA2-binding peptide a-EphA2 #3) [α-EphA2 #3] | cross reactivity to mEphA2 at a level equivalent to wild-type TACI_d2 | – | – | – | – | – | –
